Measured values: patent US20220177594A1 (ZOETIS SERVICES, published 2022)
Read-outs that look alike come from different tables or passages of the source. One block for each binder: values may come before it.

Assays:
[1] = target: T1, feline OSMR on feline Fcwf-4 cells (feline, UniProt A0ABI8A843 28-960); assay: cell-based or functional assay
T1 sequence: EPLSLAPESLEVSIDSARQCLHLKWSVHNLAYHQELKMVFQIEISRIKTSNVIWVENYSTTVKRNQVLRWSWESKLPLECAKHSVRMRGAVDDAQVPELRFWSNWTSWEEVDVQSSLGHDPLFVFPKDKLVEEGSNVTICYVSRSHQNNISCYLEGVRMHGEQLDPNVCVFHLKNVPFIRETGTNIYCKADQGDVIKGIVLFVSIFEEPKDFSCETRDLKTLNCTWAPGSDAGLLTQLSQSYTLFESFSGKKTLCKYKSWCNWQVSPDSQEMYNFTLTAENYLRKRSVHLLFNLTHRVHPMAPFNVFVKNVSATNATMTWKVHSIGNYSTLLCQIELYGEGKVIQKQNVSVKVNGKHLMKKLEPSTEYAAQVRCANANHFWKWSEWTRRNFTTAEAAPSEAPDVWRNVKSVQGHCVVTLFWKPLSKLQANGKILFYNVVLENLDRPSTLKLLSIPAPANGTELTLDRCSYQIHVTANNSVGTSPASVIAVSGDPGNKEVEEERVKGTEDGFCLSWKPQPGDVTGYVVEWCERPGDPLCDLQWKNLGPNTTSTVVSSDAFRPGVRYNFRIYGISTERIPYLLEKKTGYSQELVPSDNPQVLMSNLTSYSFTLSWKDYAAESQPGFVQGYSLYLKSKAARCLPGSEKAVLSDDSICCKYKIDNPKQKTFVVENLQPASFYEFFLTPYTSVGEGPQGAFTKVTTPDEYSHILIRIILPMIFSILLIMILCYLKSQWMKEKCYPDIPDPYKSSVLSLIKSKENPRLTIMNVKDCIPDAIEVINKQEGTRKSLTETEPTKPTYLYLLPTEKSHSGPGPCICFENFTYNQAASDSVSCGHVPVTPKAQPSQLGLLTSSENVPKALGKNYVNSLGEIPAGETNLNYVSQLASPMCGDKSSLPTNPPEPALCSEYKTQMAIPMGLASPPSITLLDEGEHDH

[2] = target: T2, canine OSMR on canine cells (canine, UniProt A0A8I3MI11 28-967); assay: cell-based or functional assay
T2 sequence: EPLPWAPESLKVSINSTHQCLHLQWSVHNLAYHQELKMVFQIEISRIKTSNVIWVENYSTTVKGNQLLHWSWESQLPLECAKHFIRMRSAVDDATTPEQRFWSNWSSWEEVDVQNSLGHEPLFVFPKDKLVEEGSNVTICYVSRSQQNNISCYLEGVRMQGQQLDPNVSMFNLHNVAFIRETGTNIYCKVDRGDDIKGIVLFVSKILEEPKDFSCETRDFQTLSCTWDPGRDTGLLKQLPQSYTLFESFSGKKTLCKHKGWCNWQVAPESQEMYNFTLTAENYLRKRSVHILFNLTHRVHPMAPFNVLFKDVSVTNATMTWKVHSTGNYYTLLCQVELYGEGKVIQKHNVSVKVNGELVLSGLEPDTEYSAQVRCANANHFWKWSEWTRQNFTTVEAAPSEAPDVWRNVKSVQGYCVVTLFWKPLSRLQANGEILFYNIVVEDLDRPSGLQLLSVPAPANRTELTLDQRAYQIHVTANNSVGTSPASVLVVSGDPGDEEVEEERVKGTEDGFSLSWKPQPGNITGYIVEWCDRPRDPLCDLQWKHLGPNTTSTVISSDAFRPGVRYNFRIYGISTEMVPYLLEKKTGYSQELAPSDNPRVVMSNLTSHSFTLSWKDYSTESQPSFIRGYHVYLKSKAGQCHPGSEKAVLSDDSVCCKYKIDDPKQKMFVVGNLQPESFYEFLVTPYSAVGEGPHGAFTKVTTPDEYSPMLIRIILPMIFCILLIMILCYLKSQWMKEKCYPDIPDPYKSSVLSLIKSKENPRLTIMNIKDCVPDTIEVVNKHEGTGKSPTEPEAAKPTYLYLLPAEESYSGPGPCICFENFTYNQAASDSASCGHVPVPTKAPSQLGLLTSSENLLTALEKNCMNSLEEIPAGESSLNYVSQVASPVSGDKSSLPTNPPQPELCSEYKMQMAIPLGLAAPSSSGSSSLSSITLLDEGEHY

Human_OSMR = target: T3, Human_OSMR (human, UniProt Q99650 28-739); assay: SPR Biacore, OSMR on chip
T3 construct: Bought protein; also called hOSMR
T3 sequence: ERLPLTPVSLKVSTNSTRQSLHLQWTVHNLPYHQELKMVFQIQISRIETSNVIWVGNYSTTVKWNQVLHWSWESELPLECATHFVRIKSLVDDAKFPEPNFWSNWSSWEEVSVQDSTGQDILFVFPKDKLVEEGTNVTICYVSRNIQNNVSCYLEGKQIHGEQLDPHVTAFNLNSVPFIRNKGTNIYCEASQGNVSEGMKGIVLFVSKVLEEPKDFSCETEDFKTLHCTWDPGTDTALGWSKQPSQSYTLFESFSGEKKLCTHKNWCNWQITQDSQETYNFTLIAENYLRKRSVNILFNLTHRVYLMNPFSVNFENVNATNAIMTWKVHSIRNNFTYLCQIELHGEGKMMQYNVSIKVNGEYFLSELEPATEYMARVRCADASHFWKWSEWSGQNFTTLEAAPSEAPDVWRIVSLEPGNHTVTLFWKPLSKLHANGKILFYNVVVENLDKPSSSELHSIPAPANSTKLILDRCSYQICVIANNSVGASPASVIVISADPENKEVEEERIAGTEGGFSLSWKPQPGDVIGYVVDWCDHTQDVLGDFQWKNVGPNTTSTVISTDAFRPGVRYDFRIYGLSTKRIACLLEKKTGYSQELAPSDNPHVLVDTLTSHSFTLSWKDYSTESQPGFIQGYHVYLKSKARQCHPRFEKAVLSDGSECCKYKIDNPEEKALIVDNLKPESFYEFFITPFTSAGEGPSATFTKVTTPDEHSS

[3] = target: T1, feline OSMR on feline Fcwf-4 cells; assay: cell-based or functional assay; remark: listed apart in the source
[4] = target: T2, canine OSMR on canine cells; assay: cell-based or functional assay; remark: listed apart in the source
[5] = target: T4, ANTIBODY EXPRESSION CONTROL; assay: SPR Biacore, expression control
T4 construct: also called mouse anti-canine antibody (capture reagent of the expression control ELISA)
Method: The affinity with which candidate mAbs bind canine, feline, and human (SEQ ID NO: 122; Human_OSMR) (R&D Systems, Minneapolis, Minn.) OSMR was determined using surface plasmon resonance (SPR) on a Biacore system (Biacore Life Sciences (GE Healthcare), Uppsala, Sweden). To avoid affinity differences associated with differential surface preparation that can occur when immobilizing antibodies to surfaces; OSMR from each species was directly conjugated to individual surfaces. Immobilization was obtained by amine coupling 5 μg/mL OSMR using N-hydroxysuccinimide (NHS)/1-Ethyl-3-(3-dimethylaminopropyl) carbodiimide (EDC) chemistry. Chips were quenched with ethanolamine and the affinity with which all candidate mAbs bound to the immobilized OSMR was evaluated. All curves were fit to a 1:1 model. […] Results for affinity measurements are described herein.
Data from an ELISA represents an equilibrium state where the antibody is allowed to associate and dissociate over a one-hour period resulting in steady-state binding. Using Biacore, the target protein is immobilized to a surface and the antibody is passed over this surface in a mobile liquid phase. Protein-protein interaction is determined from changes in the surface resonance which allows for calculation of association (kₐ), disassociation (kd), and affinity constant (KD). While not wishing to be bound to one hypothesis we present data from ELISA and Biacore experiments, using the same preparation of antibody, that may result in agreement between the two methods with respect to binding but also may show contradictory results due to the nature of the binding kinetics and different assay dynamics. The data presented in Table A (in combination with experimental results from yeast display mutational analysis in Example 21) allow for the definition of a structure:function relationship to be defined between the anti-OSMR antibodies described here and their ability to bind and block IL-31 and OSM-mediated signaling through the OSMR receptor.

B1: Mu_02D09 (antibody, V domains shown)
VH: EVQLVESGGGLVKPGGSLTLSCAASGFTFSDYGMHWLRQAPEKGLEWVAYISSGSRAVFFADTVKGRFTISRDNAKNTLFLQMTSLRSDDTAMYYCARDRYDGRGFAYWGQGTLVTVSA
VL: DIVLTQSPATLSVTPGDSVSLSCRASQSISNNLHWYQQTSHESPRLLITYASQSISGIPSRFSGSGSGTDFTLSINSVETEDFGMYFCQQSNSWPLTFGAGTKLELK
notes: Mouse hybridoma IgG; also called mouse anti-OSMR 02D09
- % inh of feline IL-31 pSTAT3 signaling, feline Fcwf-4 cells [1]: 67 % inh @ 75 µg/ml
- % inh of canine IL-31 pSTAT3 signaling, canine DH82 cells [2]: 0 % inh @ 75 µg/ml
- IC50, inhibition of canine OSM pSTAT3 signaling, canine DH82 cells [2]: > 50 µg/ml
- binding result (Human_OSMR): no binding
- % inh of feline IL-31 pSTAT3 signaling, feline Fcwf-4 cells [3]: 67 % inh
- % inh of canine IL-31 pSTAT3 signaling, canine DH82 cells [4]: 0 % inh
- IC50, inhibition of canine OSM pSTAT3 signaling, canine DH82 cells [4]: > 50 µg/ml

B4: Mu_19F07_VL (SEQ ID NO: 49)_L50A (antibody, V domains shown)
VH: EVKLVESEGGLVQPGSSMKLSCTASGFTFSDYYMAWVRQVPEKGLEWVANINYDGSSTYYLDSLKSRFIISRDNAKNILYLQMSSLKSEDTATYYCARGLTWDFDVWGTGTTVTVSS
VL: DIVMTQSHKFMSPSVGDRVSITCKASQDVDTAVAWYQQKPGQSPKLLIYAASTRHTGVPDRFTGSGSGTDFTLTISNVQSEDLADYFCQQYSRFPLTFGAGTKLELKR
- Kd [5]: 0.164 nM
- koff [5]: 4.8e-05 s⁻¹
- kon [5]: 293000 M⁻¹ s⁻¹

B7: Mu_19F07_VL (SEQ ID NO: 49)_Q90A (antibody, V domains shown)
VH: EVKLVESEGGLVQPGSSMKLSCTASGFTFSDYYMAWVRQVPEKGLEWVANINYDGSSTYYLDSLKSRFIISRDNAKNILYLQMSSLKSEDTATYYCARGLTWDFDVWGTGTTVTVSS
VL: DIVMTQSHKFMSPSVGDRVSITCKASQDVDTAVAWYQQKPGQSPKLLIYLASTRHTGVPDRFTGSGSGTDFTLTISNVQSEDLADYFCQAYSRFPLTFGAGTKLELKR
- Kd [5]: 0.161 nM
- koff [5]: 5.29e-05 s⁻¹
- kon [5]: 329000 M⁻¹ s⁻¹

B8: Mu_19F07_VL (SEQ ID NO: 49)_F94A (antibody, V domains shown)
VH: EVKLVESEGGLVQPGSSMKLSCTASGFTFSDYYMAWVRQVPEKGLEWVANINYDGSSTYYLDSLKSRFIISRDNAKNILYLQMSSLKSEDTATYYCARGLTWDFDVWGTGTTVTVSS
VL: DIVMTQSHKFMSPSVGDRVSITCKASQDVDTAVAWYQQKPGQSPKLLIYLASTRHTGVPDRFTGSGSGTDFTLTISNVQSEDLADYFCQQYSRAPLTFGAGTKLELKR
- Kd [5]: 0.16 nM
- koff [5]: 5.35e-05 s⁻¹
- kon [5]: 335000 M⁻¹ s⁻¹

More lines, in order of falling Kd [5], values ahead:

- Kd [5]: 0.156 nM
- koff [5]: 5.09e-05 s⁻¹
- kon [5]: 326000 M⁻¹ s⁻¹
B3: Mu_19F07_VH (SEQ ID NO: 47)_F104A (antibody, V domains shown)
VH: EVKLVESEGGLVQPGSSMKLSCTASGFTFSDYYMAWVRQVPEKGLEWVANINYDGSSTYYLDSLKSRFIISRDNAKNILYLQMSSLKSEDTATYYCARGLTWDADVWGTGTTVTVSS
VL: DIVMTQSHKFMSPSVGDRVSITCKASQDVDTAVAWYQQKPGQSPKLLIYLASTRHTGVPDRFTGSGSGTDFTLTISNVQSEDLADYFCQQYSRFPLTFGAGTKLELKR

- Kd [5]: 0.139 nM
- koff [5]: 4.35e-05 s⁻¹
- kon [5]: 312000 M⁻¹ s⁻¹
B2: Mu_19F07_VH (SEQ ID NO: 47)_W102A (antibody, V domains shown)
VH: EVKLVESEGGLVQPGSSMKLSCTASGFTFSDYYMAWVRQVPEKGLEWVANINYDGSSTYYLDSLKSRFIISRDNAKNILYLQMSSLKSEDTATYYCARGLTADFDVWGTGTTVTVSS
VL: DIVMTQSHKFMSPSVGDRVSITCKASQDVDTAVAWYQQKPGQSPKLLIYLASTRHTGVPDRFTGSGSGTDFTLTISNVQSEDLADYFCQQYSRFPLTFGAGTKLELKR

- Kd [5]: 0.135 nM
- koff [5]: 4.3e-05 s⁻¹
- kon [5]: 319000 M⁻¹ s⁻¹
B6: Mu_19F07_VL (SEQ ID NO: 49)_Q89A (antibody, V domains shown)
VH: EVKLVESEGGLVQPGSSMKLSCTASGFTFSDYYMAWVRQVPEKGLEWVANINYDGSSTYYLDSLKSRFIISRDNAKNILYLQMSSLKSEDTATYYCARGLTWDFDVWGTGTTVTVSS
VL: DIVMTQSHKFMSPSVGDRVSITCKASQDVDTAVAWYQQKPGQSPKLLIYLASTRHTGVPDRFTGSGSGTDFTLTISNVQSEDLADYFCAQYSRFPLTFGAGTKLELKR

- Kd [5]: 0.123 nM
- koff [5]: 3.75e-05 s⁻¹
- kon [5]: 305000 M⁻¹ s⁻¹
B5: Mu_19F07_VL (SEQ ID NO: 49)_T53A (antibody, V domains shown)
VH: EVKLVESEGGLVQPGSSMKLSCTASGFTFSDYYMAWVRQVPEKGLEWVANINYDGSSTYYLDSLKSRFIISRDNAKNILYLQMSSLKSEDTATYYCARGLTWDFDVWGTGTTVTVSS
VL: DIVMTQSHKFMSPSVGDRVSITCKASQDVDTAVAWYQQKPGQSPKLLIYLASARHTGVPDRFTGSGSGTDFTLTISNVQSEDLADYFCQQYSRFPLTFGAGTKLELKR
